Paper PMC10985318

Substrate: Nc1ncnc2c1ncn2[C@@H]1O[C@H](COP(=O)(O)OP(=O)(O)OP(=O)(O)O)[C@@H](O)[C@H]1O
Assay: purified protein
Settings: MgATP, MgCl2 twice the ATP concentration, 25 mM Tris/HCl pH 8.0, 60 mM KCl, 25 °C, at saturating MgATP, non-Michaelis kinetics, local double-reciprocal fit of three consecutive concentrations

B1: V1ΔHC (S. cerevisiae V1-ATPase lacking subunits H and C) (Saccharomyces cerevisiae S288C) (protein)
chain 1: AGAIENARKEIKRISLEDHAESEYGAIYSVSGPVVIAENMIGCAMYELVKVGHDNLVGEVIRIDGDKATIQVYEETAGLTVGDPVLRTGKPLSVELGPGLMETIYDGIQRPLKAIKEESQSIYIPRGIDTPALDRTIKWQFTPGKFQVGDHISGGDIYGSVFENSLISSHKILLPPRSRGTITWIAPAGEYTLDEKILEVEFDGKKSDFTLYHTWPVRVPRPVTEKLSADYPLLTGQRVLDALFPCVQGGTTCIPGAFGCGKTVISQSLSKYSNSDAIIYVG
chain 2: CGERGNEMAEVLMEFPELYTEMSGTKEPIMKRTTLVANTSNMPVAAREASIYTGITLAEYFRDQGKNVSMIADSSSRWAEALREISGRLGEMPADQGFPAYLGAKLASFYERAGKAVALGSPDRTGSVSIVAAVSPAGGDFSDPVTTATLGITQVFWGLDKKLAQRKHFPSINTSVSYSKYTNVLNKFYDSNYPEFPVLRDRMKEILSNAEELEQVVQLVGKSALSDSDKITLDVATLIKEDFLQQNGYSTYDAFCPIWKTFDMMRAFISYHDEAQKAVANGANWSKLADSTGDVKHAVSSSKFFEPSRGEKEVHGEFEKLLSTMQERFAESTD
chain 3: VLSDKELFAINKKAVEQGFNVKPRLNYNTVSGVNGPLVILEKVKFPRYNEIVNLTLPDGTVRQGQVLEIRGDRAIVQVFEGTSGIDVKKTTVEFTGESLRIPVSEDMLGRIFDGSGRPIDNGPKVFAEDYLDINGSPINPYARIYPEEMISTGVSAIDTMNSIARGQKIPIFSASGLPHNEIAAQICRQAGLVRPTKDVHDGHEENFSIVFAAMGVNLETARFFKQDFEENGSLERTSLFLNLANDPTIERIITPRLALTTAEYLAYQTERHVLTILTDMSSYADALREVSAAREEVPGRRGYPGYMYTDLSTIYERAGRVEGRNGSITQIPILTMPNDDITHPIPDLTGYITEGQIFVDRQLHNKGIYPPINVLPSLSRLMKSAIGEGMTRKDHGDVSNQLYAKYAIGKDAAAMKAVVGEEALSIEDKLSLEFLEKFEKTFITQGAYEDRTVFESLDQAWSLLRIYPKEMLNRISPKILDEFYDRARDDADEDEEDPDTRSSGKKKDASQEESLI
Km: 41.7 µM
kcat: 9.6 s⁻¹
